Experimental data reported in IntAct's records for PubMed 17853893.

B1: Programmed cell death 6-interacting protein (Homo sapiens), Q8WUM4 (parent)
chain: MATFISVQLKKTSEVDLAKPLVKFIQQTYPSGGEEQAQYCRAAEELSKLRRAAVGRPLDKHEGALETLLRYYDQICSIEPKFPFSENQICLTFTWKDAFDKGSLFGGSVKLALASLGYEKSCVLFNCAALASQIAAEQNLDNDEGLKIAAKHYQFASGAFLHIKETVLSALSREPTVDISPDTVGTLSLIMLAQAQEVFFLKATRDKMKDAIIAKLANQAADYFGDAFKQCQYKDTLPKEVFPVLAAKHCIMQANAEYHQSILAKQQKKFGEEIARLQHAAELIKTVASRYDEYVNVKDFSDKINRALAAAKKDNDFIYHDRVPDLKDLDPIGKATLVKSTPVNVPISQKFTDLFEKMVPVSVQQSLAAYNQRKADLVNRSIAQMREATTLANGVLASLNLPAAIEDVSGDTVPQSILTKSRSVIEQGGIQTVDQLIKELPELLQRNREILDESLRLLDEEEATDNDLRAKFKERWQRTPSNELYKPLRAEGTNFRTVLDKAVQADGQVKECYQSHRDTIVLLCKPEPELNAAIPSANPAKTMQGSEVVNVLKSLLSNLDEVKKEREGLENDLKSVNFDMTSKFLTALAQDGVINEEALSVTELDRVYGGLTTKVQESLKKQEGLLKNIQVSHQEFSKMKQSNNEANLREEVLKNLATAYDNFVELVANLKEGTKFYNELTEILVRFQNKCSDIVFARKTERDELLKDLQQSIAREPSAPSIPTPAYQSSPAGGHAPTPPTPAPRTMPPTKPQPPARPPPPVLPANRAPSATAPSPVGAGTAAPAPSQTPGSAPPPQAQGPPYPTYPGYPGYCQMPMPMGYNPYAYGQYNMPYPPVYHQSPGQAPYPGPQQPSYPFPQPPQQSYYPQQ
partner: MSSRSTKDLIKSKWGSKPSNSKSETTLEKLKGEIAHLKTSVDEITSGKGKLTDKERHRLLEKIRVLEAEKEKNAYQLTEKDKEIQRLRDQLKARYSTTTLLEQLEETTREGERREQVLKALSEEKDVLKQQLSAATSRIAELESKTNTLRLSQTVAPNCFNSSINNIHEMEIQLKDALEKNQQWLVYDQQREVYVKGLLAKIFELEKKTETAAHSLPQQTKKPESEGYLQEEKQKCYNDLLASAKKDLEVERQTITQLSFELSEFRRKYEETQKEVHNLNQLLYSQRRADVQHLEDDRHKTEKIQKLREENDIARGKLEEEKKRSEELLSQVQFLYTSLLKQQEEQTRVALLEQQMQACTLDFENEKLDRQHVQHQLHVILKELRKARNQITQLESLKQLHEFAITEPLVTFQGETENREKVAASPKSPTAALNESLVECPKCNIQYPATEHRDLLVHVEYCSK

Variants of: B1
Settings: with cep55_human CEP55, Q53EZ4

Variant	effect of a mutation on the interaction
G800A;P801A;P802A	disrupting interaction strength
